For assay [1], the target named is DnaJ, wild type (E. coli) (UniProt P08622). Briefly: pull-down.
The target of another assay is ClpB, wild type (E. coli, UniProt P63284 1-857). Description: BLI. In general terms: Biolayer interferometry detects binding as a change in optical thickness at a sensor tip.
Sequence of ClpB, wild type (P63284 whole entry): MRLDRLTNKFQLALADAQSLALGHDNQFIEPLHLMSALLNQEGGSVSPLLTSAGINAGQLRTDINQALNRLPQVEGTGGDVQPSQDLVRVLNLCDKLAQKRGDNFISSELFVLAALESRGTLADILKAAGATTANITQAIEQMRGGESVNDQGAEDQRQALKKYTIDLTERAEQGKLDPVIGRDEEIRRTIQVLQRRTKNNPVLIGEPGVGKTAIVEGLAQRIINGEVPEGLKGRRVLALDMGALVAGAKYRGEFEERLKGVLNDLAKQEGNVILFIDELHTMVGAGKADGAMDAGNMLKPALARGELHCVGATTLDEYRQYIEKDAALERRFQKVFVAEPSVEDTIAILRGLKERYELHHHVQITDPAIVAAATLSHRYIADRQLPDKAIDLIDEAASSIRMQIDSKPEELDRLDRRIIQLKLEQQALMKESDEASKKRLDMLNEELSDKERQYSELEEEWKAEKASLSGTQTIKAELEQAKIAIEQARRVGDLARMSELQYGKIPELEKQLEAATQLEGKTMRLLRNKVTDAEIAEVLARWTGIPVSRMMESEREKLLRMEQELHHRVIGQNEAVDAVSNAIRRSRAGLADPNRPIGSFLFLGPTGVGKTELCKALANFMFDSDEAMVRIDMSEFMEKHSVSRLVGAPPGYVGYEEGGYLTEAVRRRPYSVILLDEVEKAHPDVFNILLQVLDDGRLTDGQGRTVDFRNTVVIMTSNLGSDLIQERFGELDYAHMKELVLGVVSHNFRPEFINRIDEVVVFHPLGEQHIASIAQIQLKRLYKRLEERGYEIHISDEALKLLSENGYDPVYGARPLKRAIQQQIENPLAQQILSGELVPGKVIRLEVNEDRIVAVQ

With “ΔN ClpB (ClpB mutant lacking the NTD) (domain or fragment)”, the binding as percent of wild-type ClpB in assay [1] came out at 40%.

B1: DnaJ, wild type (natural protein)
chain: MAKQDYYEILGVSKTAEEREIRKAYKRLAMKYHPDRNQGDKEAEAKFKEIKEAYEVLTDSQKRAAYDQYGHAAFEQGGMGGGGFGGGADFSDIFGDVFGDIFGGGRGRQRAARGADLRYNMELTLEEAVRGVTKEIRIPTLEECDVCHGSGAKPGTQPQTCPTCHGSGQVQMRQGFFAVQQTCPHCQGRGTLIKDPCNKCHGHGRVERSKTLSVKIPAGVDTGDRIRLAGEGEAGEHGAPAGDLYVQVQVKQHPIFEREGNNLYCEVPINFAMAALGGEIEVPTLDGRVKLKVPGETQTGKLFRMRGKGVKSVRGGAQGDLLCRVVVETPVGLNERQKQLLQELQESFGGPTGEHNSPRSKSFFDGVKKFFDDLTR
modifications: biotin (DnaJ-biotin in the pull-down assays with ClpB; sites not stated)
One may read the Kd as a measure of binding affinity in units of concentration. With B1, the Kd in the assay with ClpB, wild type was determined as 55.2 ± 9.9 nM.

(Values after PMC11804706 (Proceedings of the National Academy of Sciences of the …, 2025).)
